± gives the standard deviation of the averaged measurements.
Assays:
hTERT-HMEC = test: percentage of EdU-negative (G0-arrested) nuclei per well, 72 h; higher = more G0 arrest; conditions: reference: sequence is the full UniProt precursor, the tested protein was the secreted form or ectodomain
MCF7 = test: as above; conditions: reference: sequence is the full UniProt precursor, the tested protein was the secreted form or ectodomain
[1] = protein concentration 0.0225 µM
[2] = protein concentration 0.0257143 µM
[3] = protein concentration 0.257143 µM
[4] = protein concentration 0.019925 µM
[5] = protein concentration 0.19925 µM
[6] = protein concentration 0.0161125 µM
[7] = protein concentration 0.161125 µM
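Also: secreted proteins added to cultured cells, EdU pulse at the end, nuclei found by Hoechst imaging, EdU status from nuclear versus surrounding ring intensity ratio, PBS as neutral control.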

Sequence | percentage of EdU-negative (hTERT-HMEC; [1]) [%] | percentage of EdU-negative (hTERT-HMEC; protein concentration 0.225 µM) [%] | percentage of EdU-negative (MCF7; [1]) [%] | percentage of EdU-negative (MCF7; protein concentration 0.225 µM) [%] | also measured
MAVFKTTLWRLISGTLGIICLSLMSTLGILLKNSFTKLSIEPAFTPGPNIELQKDSDCCSCQEKWVGYRCNCYFISSEQKTWNESRHLCASQKSSLLQLQNTDELDFMSSSQQFYWIGLSYSEEHTAWLWENGSALSQYLFPSFETFNTKNCIAYNPNGNALDESCEDKNRYICKQQLI | 4.98 ± 0.64 | 5.53 ± 0.17 | 26.6 ± 3 | 25.3 ± 3.1 | 
MKLAALLGLCVALSCSSAAAFLVGSAKPVAQPVAALESAAEAGAGTLANPLGTLNPLKLLLSSLGIPVNHLIEGSQKCVAELGPQAVGAVKALKALLGALTVFG [Q96QR1] | 5.9 ± 0.79 | 5.2 ± 0.81 | 21.8 ± 1.8 | 23.7 ± 1.3 | 
MHLLLFQLLVLLPLGKTTRHQDGRQNQSSLSPVLLPRNQRELPTGNHEEAEEKPDLFVAVPHLVATSPAGEGQRQREKMLSRFGRFWKKPEREMHPSRDSDSEPFPPGTQSLIQPIDGMKMEKSPLREEAKKFWHHFMFRKTPASQGVILPIKSHEVHWETCRTVPFSQTITHEGCEKVVVQNNLCFGKCGSVHFPGAAQHSHTSCSHCLPAKFTTMHLPLNCTELSSVIKVVMLVEECQCKVKTEHEDGHILHAGSQDSFIPGVSA |  |  |  |  | percentage of EdU-negative (hTERT-HMEC; [2]): 4.67 ± 0.26%; percentage of EdU-negative (hTERT-HMEC; [3]): 5.44 ± 1.3%; percentage of EdU-negative (MCF7; [2]): 23.4 ± 3.4%; percentage of EdU-negative (MCF7; [3]): 24.2 ± 0.59%
MAVGKFLLGSLLLLSLQLGQGWGPDARGVPVADGEFSSEQVAKAGGTWLGTHRPLARLRRALSGPCQLWSLTLSVAELGLGYASEEKVIFRYCAGSCPRGARTQHGLALARLQGQGRAHGGPCCRPTRYTDVAFLDDRHRWQRLPQLSAAACGCGG |  |  |  |  | percentage of EdU-negative (hTERT-HMEC; [4]): 5.17 ± 0.068%; percentage of EdU-negative (hTERT-HMEC; [5]): 5.42 ± 0.64%; percentage of EdU-negative (MCF7; [4]): 27.7 ± 0.63%; percentage of EdU-negative (MCF7; [5]): 26.7 ± 3.4%
MQAQQYQQQRRKFAAAFLAFIFILAAVDTAEAGKKEKPEKKVKKSDCGEWQWSVCVPTSGDCGLGTREGTRTGAECKQTMKTQRCKIPCNWKKQFGAECKYQFQAWGECDLNTALKTRTGSLKRALHNAECQKTVTISKPCGKLTKPKPQAESKKKKKEGKKQEKMLD |  |  |  |  | percentage of EdU-negative (hTERT-HMEC; [6]): 4.79 ± 0.99%; percentage of EdU-negative (hTERT-HMEC; [7]): 5.12 ± 0.3%; percentage of EdU-negative (MCF7; [6]): 25.8 ± 1.2%; percentage of EdU-negative (MCF7; [7]): 30.5 ± 1.6%
MKSLTWILGLWALAACFTPGESQRGPRGPYPPGPLAPPPPPCFPFGTGFVPPPHPPPYGPGRFPPPLSPPYGPGRIPPSPPPPYGPGRIQSHSLPPPYGPGYPQPPSQPRPYPPGPPFFPVNSPTDPALPTPAP |  |  |  |  | percentage of EdU-negative (hTERT-HMEC; [2]): 5.63 ± 1.3%; percentage of EdU-negative (hTERT-HMEC; [3]): 7.43 ± 0.82%; percentage of EdU-negative (MCF7; [2]): 22.6 ± 1%; percentage of EdU-negative (MCF7; [3]): 26.45 ± 0.12%
MLSGRLVLGLVSMAGRVCLCQGSAGSGAIGPVEAAIRTKLEEALSPEVLELRNESGGHAVPPGSETHFRVAVVSSRFEGLSPLQRHRLVHAALAEELGGPVHALAIQARTPAQWRENSQLDTSPPCLGGNKKTLGTP [Q9Y3E2] | 5.42 ± 0.18 | 5.59 ± 0.52 | 28 ± 1.9 | 27.3 ± 2.5 | 
MLWLFQSLLFVFCFGPGNVVSQSSLTPLMVNGILGESVTLPLEFPAGEKVNFITWLFNETSLAFIVPHETKSPEIHVTNPKQGKRLNFTQSYSLQLSNLKMEDTGSYRAQISTKTSAKLSSYTLRILRQLRNIQVTNHSQLFQNMTCELHLTCSVEDADDNVSFRWEALGNTLSSQPNLTVSWDPRISSEQDYTCIAENAVSNLSFSVSAQKLCEDVKIQYTDTKMILFMVSGICIVFGFIILLLLVLRKRRDSLSLSTQRTQGPAESARNLEYVSVSPTNNTVYASVTHSNRETEIWTPRENDTITIYSTINHSKESKPTFSRATALDNVV [Q96DU3] | 4.5 ± 0.13 | 5.94 ± 1.1 | 24.69 ± 0.12 | 25 ± 1.3 | 

Source: the supplement of paper PMC11316812
